Test results published in FireProtDB (doi:10.1038/nsb0196-54).

B1: Regulatory protein rop, P03051 (parent)
chain: MTKQEKTALNMARFIRSQTLTLLEKLNELDADEQADICESLHDHADELYRSCLARFGDDGENL

Variants of: B1
Conditions: Escherichia coli, pH 7, Thermal, CD, Sodium phosphate 10 mM, NaCl 350 mM, structure 1ROP, whole UniProt chain shown; for ddG of mutation (higher = less stable): 69 °C

| Variant | ddG of mutation (higher = less stable) | Tm | change of melting temperature, mutant - wild type (higher = more stable) |
| --- | --- | --- | --- |
| MTKQEKTALNMARFIRSQTLTLLEKLNELFADEQADICESLHDHADELYRSCLARFGDDGENL | 0.1 kcal/mol | 68.3 °C | -0.4 °C |
| MTKQEKTALNMARFIRSQTLTLLEKLNELKADEQADICESLHDHADELYRSCLARFGDDGENL | -0.9 kcal/mol | 74.6 °C | 5.9 °C |
| MTKQEKTALNMARFIRSQTLTLLEKLNELWADEQADICESLHDHADELYRSCLARFGDDGENL | 0.4 kcal/mol | 65.9 °C | -2.8 °C |
| MTKQEKTALNMARFIRSQTLTLLEKLNELSADEQADICESLHDHADELYRSCLARFGDDGENL | -1 kcal/mol | 74.7 °C | 6 °C |
| MTKQEKTALNMARFIRSQTLTLLEKLNELYADEQADICESLHDHADELYRSCLARFGDDGENL | -0.2 kcal/mol | 70.4 °C | 1.7 °C |
| MTKQEKTALNMARFIRSQTLTLLEKLNELQADEQADICESLHDHADELYRSCLARFGDDGENL | -1.8 kcal/mol | 79.1 °C | 10.4 °C |
| MTKQEKTALNMARFIRSQTLTLLEKLNELLADEQADICESLHDHADELYRSCLARFGDDGENL | 0.1 kcal/mol | 68.4 °C | -0.3 °C |
| MTKQEKTALNMARFIRSQTLTLLEKLNELPADEQADICESLHDHADELYRSCLARFGDDGENL | 1.6 kcal/mol | 58.9 °C | -9.8 °C |
| MTKQEKTALNMARFIRSQTLTLLEKLNELAADEQADICESLHDHADELYRSCLARFGDDGENL | -0.3 kcal/mol | 71.2 °C | 2.5 °C |
| MTKQEKTALNMARFIRSQTLTLLEKLNELNADEQADICESLHDHADELYRSCLARFGDDGENL | -0.8 kcal/mol | 73.8 °C | 5.1 °C |
| MTKQEKTALNMARFIRSQTLTLLEKLNELHADEQADICESLHDHADELYRSCLARFGDDGENL | -0.9 kcal/mol | 74.5 °C | 5.8 °C |
| MTKQEKTALNMARFIRSQTLTLLEKLNELIADEQADICESLHDHADELYRSCLARFGDDGENL | 0.8 kcal/mol | 63.4 °C | -5.3 °C |
| MTKQEKTALNMARFIRSQTLTLLEKLNELVADEQADICESLHDHADELYRSCLARFGDDGENL | 0.4 kcal/mol | 66.6 °C | -2.1 °C |
| MTKQEKTALNMARFIRSQTLTLLEKLNELGADEQADICESLHDHADELYRSCLARFGDDGENL | -2 kcal/mol | 80.3 °C | 11.6 °C |
| MTKQEKTALNMARFIRSQTLTLLEKLNELEADEQADICESLHDHADELYRSCLARFGDDGENL | -1 kcal/mol | 74.9 °C | 6.2 °C |
| MTKQEKTALNMARFIRSQTLTLLEKLNELCADEQADICESLHDHADELYRSCLARFGDDGENL | -0.8 kcal/mol | 74 °C | 5.3 °C |
| MTKQEKTALNMARFIRSQTLTLLEKLNELRADEQADICESLHDHADELYRSCLARFGDDGENL | -0.8 kcal/mol | – | – |
| MTKQEKTALNMARFIRSQTLTLLEKLNELTADEQADICESLHDHADELYRSCLARFGDDGENL | 0.4 kcal/mol | 66.6 °C | -2.1 °C |
| MTKQEKTALNMARFIRSQTLTLLEKLNELMADEQADICESLHDHADELYRSCLARFGDDGENL | -0.6 kcal/mol | 72.7 °C | 4 °C |
